Assay [1] addresses WT anti-NIP hIgG1 (chimeric hIgG1 with mouse lambda light chain, hIgG1 constant HC and a VH specific for NIP) (human | mouse). Nature of the assay: MST; 20 nM NT-647-labelled hIgG1 variant constant, hFcRn titrated (60,000–0.3 nM); PBS, 0.01% Tween 20, pH 7.4; 25 °C; Monolith NT.115.
The target of assay [2] is anti-NIP hIgG1-KF (H433K/N434F) (human | mouse). The assay is described as above.
Assay [3] deals with anti-NIP hIgG1-LS (M428L/N434S) (human | mouse). The description is as above.
Assay [4] concerns the target anti-NIP hIgG1-YTE (M252Y/S254T/T256E) (human | mouse). Described as above.
In assay [5] the target is WT anti-NIP hIgG1 (chimeric hIgG1 with mouse lambda light chain, hIgG1 constant HC and a VH specific for NIP) (human | mouse). Nature of the assay: MST; 20 nM NT-647-labelled hIgG1 variant constant, hFcRn titrated (60,000–0.3 nM); 100 mM phosphate buffer, 150 mM NaCl, 0.01% Tween 20, pH 5.5; 25 °C; Monolith NT.115.
In assay [6] the target is anti-NIP hIgG1-KF (H433K/N434F) (human | mouse). Described as above.
In assay [7] the target is anti-NIP hIgG1-YTE (M252Y/S254T/T256E) (human | mouse). The description is as above.
Assay [8] concerns the target anti-NIP hIgG1-YTE/KF (M252Y/S254T/T256E/H433K/N434F) (human | mouse). Described as above.
Assay [9] concerns the target hFcRn coupled to the affinity column (analytical hFcRn affinity chromatography) (UniProt P55899). Nature of the assay: analytical hFcRn affinity chromatography; hFcRn coupled to the column; 50 µl hIgG1 variant (1 mg/ml) injected, eluted by a linear pH gradient from pH 6.0 to 8.8 within 110 min (20 mM MES, 140 mM NaCl / 20 mM Tris/HCl, 140 NaCl).
Assay [10] deals with Truncated monomeric His-tagged hFcRn (three extracellular domains of the hFcRn HC with human β2-microglobulin) (human) (UniProt P55899).

Our source for the Kd, pH of the elution peak from the hFcRn column and reduction of recycling of WT anti-hexon hIgG1 (500 nM) by HMEC1-hFcRn cells (HERA, pH 7.4) with 2 µM YTE/KF; the pair blocked is WT hIgG1 and hFcRn values is PMC5809500.

One may read the Kd as the concentration at which binding is half-saturated. In the case of “Truncated monomeric His-tagged hFcRn (three extracellular domains of the hFcRn HC with human β2-microglobulin) (from UniProt P55899 24-297; P61769 21-119) (receptor)”, the Kd in assay [1] was > 60000 nM; in assay [2] it was 3300 nM; in assay [3], 7000 nM; in assay [4] it was > 20000 nM; in assay [5], 964 nM; in [6], 53.4 nM. Further, the values for the Kd in [7] and in assay [8] were 166 nM and 9.3 nM, respectively.

Take “WT anti-NIP hIgG1 (chimeric hIgG1 with mouse lambda light chain, hIgG1 constant HC and a VH specific for NIP) (antibody)”: the pH of the elution peak from the hFcRn column in assay [9] is 7 pH.

On to “anti-NIP hIgG1-YTE/KF (M252Y/S254T/T256E/H433K/N434F) (antibody)”, for which, in assay [10], the reduction of recycling of WT anti-hexon hIgG1 (500 nM) by HMEC1-hFcRn cells (HERA, pH 7.4) with 2 µM YTE/KF; the pair blocked is WT hIgG1 and hFcRn amounted to 50%.
